Reference: the supplement of paper PMC10126150
± gives the standard deviation of the averaged measurements.
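Note: ATP exposure 15 min at 22 °C before imaging.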

Each sequence was assayed on ATP (assay: switch fluorescence ratio, 500 uM ATP over buffer (Cy3 cluster intensity, sum of 5 cycles each) (fold (ratio)); higher = stronger signal-on switching upon ATP binding; sequences stand for … in TCGTCGGCAGCGTCAGATGTGTATAAGAGACAGTTTTTTTTTTTTTTTTTTTTTTTTT…TC). Settings: aptamer strand: ATP DNA aptamer (quencher-CACCTGGGGGAGTATTGCGGAGGAAGG + anchor), 100 nM annealed; ATP concentration: 500 uM.
Outline: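 Cy3-labelled switching-strand clusters on a modified Illumina MiSeq flow-cell were annealed to 100 nM quencher-labelled ATP aptamer and imaged first in selection buffer, then after 15 min with 500 uM ATP at 22 °C. NaOH stripping and re-annealing separated each of five buffer/ATP cycles, and clusters outside 100-1000 RFU were excluded. The fluorescence ratio sums target-cycle Cy3 intensity over buffer-cycle Cy3 intensity per cluster and averages it per switch-domain sequence.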
Sequence GCTCTGAGTG has a switch fluorescence ratio of 1.013 ± 0.0075.
GCTCTGTCGG was tested, and the switch fluorescence ratio was 1.02 ± 0.012.
GCTCTTAGTT was tested, and the switch fluorescence ratio was 0.992 ± 0.018.
For GCTCTTTGGG, the switch fluorescence ratio was 1.06 ± 0.13.
GCTGAGGGTG gave a switch fluorescence ratio of 1.01 ± 0.028.
GCTGATATCC was tested, and the switch fluorescence ratio was 1.01 ± 0.048.
With GCTGATGTTT the switch fluorescence ratio was 1.023 ± 0.0095.
GCTGATTGGA gave a switch fluorescence ratio of 0.979 ± 0.055.
In the case of GCTGCATGTA, the switch fluorescence ratio is reported as 1.02 ± 0.028.
GCTGCGCCGT showed a switch fluorescence ratio of 1.004 ± 0.0092.
Work on GCTGCGGGGA yielded a switch fluorescence ratio of 0.9929 ± 0.0071.
GCTGCGGGTC was tested, and the switch fluorescence ratio was 1.02 ± 0.033.
GCTGCTAAGG was tested, and the switch fluorescence ratio was 0.987 ± 0.056.
With GCTGCTATTG the switch fluorescence ratio was 0.994 ± 0.02.
Sequence GCTGCTTTTT has a switch fluorescence ratio of 1.01 ± 0.041.
GCTGGCAGTG was tested, and the switch fluorescence ratio was 0.972 ± 0.029.
Sequence GCTGGGAAGG has a switch fluorescence ratio of 0.978 ± 0.013.
With GCTGGGAGGG the switch fluorescence ratio was 0.979 ± 0.022.
GCTGGGATAG showed a switch fluorescence ratio of 1.01 ± 0.019.
GCTGGGCACT showed a switch fluorescence ratio of 1.01 ± 0.035.
For GCTGGGGGCA, the switch fluorescence ratio was 1.05 ± 0.098.
Sequence GCTGGGGGTT has a switch fluorescence ratio of 0.996 ± 0.059.
GCTGGGGTCG was tested, and the switch fluorescence ratio was 0.9631 ± 0.0029.
In the case of GCTGGGGTTA, the switch fluorescence ratio is reported as 0.996 ± 0.019.
With GCTGGGGTTG the switch fluorescence ratio was 0.9839 ± 0.003.
For GCTGGGTTTC, the switch fluorescence ratio was 0.996 ± 0.02.
For GCTGGGTTTG, the switch fluorescence ratio was 0.9866 ± 0.0088.
GCTGGTAGGG was tested, and the switch fluorescence ratio was 1.01 ± 0.026.
GCTGGTGGGG was tested, and the switch fluorescence ratio was 0.964 ± 0.05.
GCTGGTGGGT was tested, and the switch fluorescence ratio was 0.988 ± 0.012.
In the case of GCTGGTTTAG, the switch fluorescence ratio is reported as 1.006 ± 0.0039.
GCTGGTTTTG gave a switch fluorescence ratio of 0.9716 ± 0.004.
For GCTGTAAAGC, the switch fluorescence ratio was 1.03 ± 0.092.
In the case of GCTGTAAGTA, the switch fluorescence ratio is reported as 0.988 ± 0.017.
GCTGTACGAT was tested, and the switch fluorescence ratio was 1.16 ± 0.012.
GCTGTAGTTT showed a switch fluorescence ratio of 0.973 ± 0.015.
Sequence GCTGTATATT has a switch fluorescence ratio of 0.993 ± 0.0017.
Sequence GCTGTCATTC has a switch fluorescence ratio of 1.01 ± 0.014.
For GCTGTCGGTG, the switch fluorescence ratio was 0.972 ± 0.0079.
GCTGTCGTTA gave a switch fluorescence ratio of 1.015 ± 0.01.
GCTGTGGCT gave a switch fluorescence ratio of 0.972 ± 0.01.
GCTGTGGTAC showed a switch fluorescence ratio of 1.188 ± 0.0086.
Sequence GCTGTGTCCA has a switch fluorescence ratio of 0.993 ± 0.01.
Work on GCTGTGTGGG yielded a switch fluorescence ratio of 1.03 ± 0.032.
GCTGTTAGAG gave a switch fluorescence ratio of 1.02 ± 0.022.
In the case of GCTGTTAGCA, the switch fluorescence ratio is reported as 1.02 ± 0.034.
Sequence GCTGTTCATG has a switch fluorescence ratio of 0.993 ± 0.015.
With GCTGTTGAAT the switch fluorescence ratio was 1.02 ± 0.041.
GCTGTTGGAA showed a switch fluorescence ratio of 0.985 ± 0.012.
Sequence GCTGTTGTTC has a switch fluorescence ratio of 0.979 ± 0.041.
GCTGTTTACG gave a switch fluorescence ratio of 1.03 ± 0.031.
GCTGTTTACT was tested, and the switch fluorescence ratio was 1 ± 0.012.
For GCTGTTTCCC, the switch fluorescence ratio was 0.989 ± 0.024.
Sequence GCTTAATCAG has a switch fluorescence ratio of 0.988 ± 0.022.
With GCTTAATTAG the switch fluorescence ratio was 1.02 ± 0.017.
GCTTACTGTG was tested, and the switch fluorescence ratio was 1.01 ± 0.037.
Work on GCTTAGGGTG yielded a switch fluorescence ratio of 1.01 ± 0.015.
In the case of GCTTAGTGGG, the switch fluorescence ratio is reported as 0.954 ± 0.013.
GCTTATAATT was tested, and the switch fluorescence ratio was 0.991 ± 0.013.
Sequence GCTTATCCTG has a switch fluorescence ratio of 0.982 ± 0.041.
GCTTATCGGT showed a switch fluorescence ratio of 0.996 ± 0.018.
In the case of GCTTCAGAAA, the switch fluorescence ratio is reported as 1 ± 0.066.
GCTTCAGGG showed a switch fluorescence ratio of 1 ± 0.019.
For GCTTCCCAGC, the switch fluorescence ratio was 1.19 ± 0.032.
Sequence GCTTCGGGCC has a switch fluorescence ratio of 0.991 ± 0.015.
GCTTCTATGC showed a switch fluorescence ratio of 1.02 ± 0.037.
Work on GCTTGAAGGG yielded a switch fluorescence ratio of 1.01 ± 0.027.
Work on GCTTGAAGTT yielded a switch fluorescence ratio of 0.991 ± 0.068.
GCTTGAATTT was tested, and the switch fluorescence ratio was 0.984 ± 0.02.
GCTTGAGTAC gave a switch fluorescence ratio of 0.992 ± 0.037.
Work on GCTTGATACG yielded a switch fluorescence ratio of 1.06 ± 0.099.
Sequence GCTTGCATGC has a switch fluorescence ratio of 1.04 ± 0.022.
GCTTGCGGGG showed a switch fluorescence ratio of 0.9774 ± 0.0015.
In the case of GCTTGGAGAG, the switch fluorescence ratio is reported as 0.99 ± 0.013.
Work on GCTTGGCAGT yielded a switch fluorescence ratio of 1.03 ± 0.018.
GCTTGGCTCG was tested, and the switch fluorescence ratio was 1.01 ± 0.027.
Sequence GCTTGGCTTG has a switch fluorescence ratio of 1.02 ± 0.025.
Sequence GCTTGGTGCA has a switch fluorescence ratio of 0.997 ± 0.031.
GCTTGGTGTC gave a switch fluorescence ratio of 1.05 ± 0.014.
For GCTTGTACGG, the switch fluorescence ratio was 1.01 ± 0.039.
For GCTTGTTTGA, the switch fluorescence ratio was 1.01 ± 0.014.
GCTTTACCAG gave a switch fluorescence ratio of 0.989 ± 0.013.
In the case of GCTTTAGTGG, the switch fluorescence ratio is reported as 0.963 ± 0.012.
In the case of GCTTTCAGGG, the switch fluorescence ratio is reported as 1.01 ± 0.025.
Sequence GCTTTGGGAA has a switch fluorescence ratio of 1.03 ± 0.04.
For GCTTTTGCAC, the switch fluorescence ratio was 1.028 ± 0.0078.
Sequence GCTTTTGGCG has a switch fluorescence ratio of 1.02 ± 0.021.
In the case of GCTTTTGGTA, the switch fluorescence ratio is reported as 1.002 ± 0.0095.
Work on GCTTTTGTGG yielded a switch fluorescence ratio of 0.986 ± 0.035.
Work on GCTTTTTGGC yielded a switch fluorescence ratio of 1.03 ± 0.063.
GCTTTTTTGG was tested, and the switch fluorescence ratio was 0.994 ± 0.025.
For GGAAAAACGT, the switch fluorescence ratio was 0.998 ± 0.015.
GGAAAAAGGA showed a switch fluorescence ratio of 0.9423 ± 0.0081.
GGAAAAAGGT gave a switch fluorescence ratio of 1.05 ± 0.14.
For GGAAAATTTA, the switch fluorescence ratio was 0.963 ± 0.059.
GGAAACGGGT showed a switch fluorescence ratio of 1.02 ± 0.014.
GGAAACTCGG gave a switch fluorescence ratio of 0.986 ± 0.029.
For GGAAACTTTT, the switch fluorescence ratio was 1.07 ± 0.098.
In the case of GGAAAGGTCG, the switch fluorescence ratio is reported as 1.04 ± 0.039.
GGAAATCGGG was tested, and the switch fluorescence ratio was 0.989 ± 0.027.
GGAAATGGTG was tested, and the switch fluorescence ratio was 1.1 ± 0.11.
In the case of GGAAATGTTG, the switch fluorescence ratio is reported as 0.991 ± 0.041.
Work on GGAACGCAGG yielded a switch fluorescence ratio of 0.9981 ± 0.0022.
With GGAACGGGGT the switch fluorescence ratio was 1.01 ± 0.048.
With GGAAGATACG the switch fluorescence ratio was 1.03 ± 0.015.
With GGAAGATGTG the switch fluorescence ratio was 1.02 ± 0.016.
In the case of GGAAGCTTAA, the switch fluorescence ratio is reported as 1.048 ± 0.0032.
In the case of GGAAGGATTC, the switch fluorescence ratio is reported as 0.999 ± 0.013.
In the case of GGAAGGGAAC, the switch fluorescence ratio is reported as 0.988 ± 0.033.
With GGAAGGGCGA the switch fluorescence ratio was 0.9569 ± 0.0068.
GGAAGGGGTG was tested, and the switch fluorescence ratio was 1.01 ± 0.035.
GGAAGGGGTT was tested, and the switch fluorescence ratio was 1.03 ± 0.089.
Work on GGAAGGTAAT yielded a switch fluorescence ratio of 1 ± 0.048.
GGAAGGTGGT was tested, and the switch fluorescence ratio was 0.987 ± 0.024.
For GGAAGTTGGG, the switch fluorescence ratio was 0.98 ± 0.023.
In the case of GGAAGTTTTT, the switch fluorescence ratio is reported as 0.9946 ± 0.0079.
Work on GGAATAAGGG yielded a switch fluorescence ratio of 0.995 ± 0.015.
For GGAATACGAT, the switch fluorescence ratio was 1.09 ± 0.16.
In the case of GGAATAGCGG, the switch fluorescence ratio is reported as 0.993 ± 0.029.
Work on GGAATATATA yielded a switch fluorescence ratio of 0.951 ± 0.013.
GGAATATTGG gave a switch fluorescence ratio of 1.02 ± 0.019.
GGAATCAGGT was tested, and the switch fluorescence ratio was 1.014 ± 0.0065.
In the case of GGAATCCTTT, the switch fluorescence ratio is reported as 0.998 ± 0.0088.
With GGAATCGGCG the switch fluorescence ratio was 0.988 ± 0.017.
Work on GGAATCTAAC yielded a switch fluorescence ratio of 1.03 ± 0.048.
GGAATGCTTC was tested, and the switch fluorescence ratio was 1.06 ± 0.041.
Sequence GGAATGGATA has a switch fluorescence ratio of 1 ± 0.035.
With GGAATGGGGT the switch fluorescence ratio was 0.997 ± 0.024.
GGAATGGGTG gave a switch fluorescence ratio of 1 ± 0.057.
In the case of GGAATTATTT, the switch fluorescence ratio is reported as 1.017 ± 0.01.
Sequence GGAATTCCCG has a switch fluorescence ratio of 0.98 ± 0.054.
GGAATTGGTT was tested, and the switch fluorescence ratio was 1.01 ± 0.061.
For GGAATTTAGG, the switch fluorescence ratio was 1 ± 0.015.
GGAATTTTGC showed a switch fluorescence ratio of 1.03 ± 0.031.
GGAATTTTTT gave a switch fluorescence ratio of 0.9887 ± 0.0051.
GGACACGCAG showed a switch fluorescence ratio of 1.02 ± 0.047.
For GGACACGGTA, the switch fluorescence ratio was 1.12 ± 0.029.
With GGACACGTTG the switch fluorescence ratio was 1.05 ± 0.083.
Work on GGACAGGGGG yielded a switch fluorescence ratio of 0.9633 ± 0.0051.
Sequence GGACATTGAC has a switch fluorescence ratio of 1.08 ± 0.02.
Sequence GGACCCGGTT has a switch fluorescence ratio of 1.04 ± 0.029.
GGACCGGCCG was tested, and the switch fluorescence ratio was 1.01 ± 0.076.
GGACGATCGG gave a switch fluorescence ratio of 0.9765 ± 0.0046.
GGACGGAATG was tested, and the switch fluorescence ratio was 0.955 ± 0.02.
In the case of GGACGGTCTT, the switch fluorescence ratio is reported as 1.01 ± 0.043.
In the case of GGACGTAGTT, the switch fluorescence ratio is reported as 0.9578 ± 0.0095.
For GGACTAGTTA, the switch fluorescence ratio was 0.99 ± 0.021.
GGACTGGGGA was tested, and the switch fluorescence ratio was 1.0045 ± 0.00084.
GGACTGGTCG gave a switch fluorescence ratio of 1 ± 0.022.
Work on GGACTTCGCG yielded a switch fluorescence ratio of 1.01 ± 0.085.
GGACTTGTCT showed a switch fluorescence ratio of 1.01 ± 0.053.
With GGACTTTTTT the switch fluorescence ratio was 1.03 ± 0.016.
GGAGAATTTA showed a switch fluorescence ratio of 1.02 ± 0.034.
